Measurements: patent publication US20040106557
Entries after “also recorded” stand apart in the source; their conditions may differ.

Columns and labels:
[1] = tested on: GST-A-1 (peptide A-1 expressed as glutathione S-transferase fusion protein)
[2] = tested on: GST-B-2 (peptide B-2 expressed as glutathione S-transferase fusion protein)
[3] = tested on: GST-C-4 (peptide C-4 expressed as glutathione S-transferase fusion protein)
[4] = tested on: SKSKSKS-aca-CVAYCIEHHCWTC (SKSKSKS-tailed peptide C4)
Target sequence (chain, as listed by the source): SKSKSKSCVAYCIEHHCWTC

[5] = tested on: chemically synthesized peptide A-1 (A-1-1, A-1 parent)
[6] = tested on: chemically synthesized peptide C-4 without GA flanks (C-4-1, C4 parent)
[7] = target: insulin like growth factor-binding protein 3 (IGF-BP-3) (UniProt P17936)
insulin like growth factor-binding protein 3 (IGF-BP-3), sequence (P17936 28-291): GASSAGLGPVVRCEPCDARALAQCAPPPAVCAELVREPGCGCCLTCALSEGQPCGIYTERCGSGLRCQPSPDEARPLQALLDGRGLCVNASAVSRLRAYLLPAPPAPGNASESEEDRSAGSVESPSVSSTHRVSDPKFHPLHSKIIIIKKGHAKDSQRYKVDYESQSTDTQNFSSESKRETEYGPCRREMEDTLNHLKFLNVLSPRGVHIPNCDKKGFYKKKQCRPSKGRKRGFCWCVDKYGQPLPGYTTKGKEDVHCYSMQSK

[8] = tested on: mercaptoethanol-reduced C4

In the case of “Prostate specific antigen (PSA), purified from human seminal fluid”, the “PSA enzyme activity (A405) on substrate S-2586; PSA 0.33 µM, peptide in 30-fold molar excess” value (125I-labeled C4) was 125-iodinated C4: rises to about 0.048 at 58 min, little above PSA alone (about 0.040) and far under C4 (about 0.070), the “PSA enzyme activity (A405) on substrate S-2586; PSA 0.33 µM with 100 µL of C18 fractions of the Eu-labelling mixture of C4” value (Eu-labelled C4-peptide) was “at 60 min fraction 27 reaches about 0.043, fraction 26 about 0.037, fraction 28 about 0.024; all other fractions and the PSA control lie together at about 0.006-0.011” and the “PSA activity against the chromogenic substrate S-2586 (A405)” value (from here on “PSA activity”) [1] was “The enzyme activity of PSA was significantly enhanced by the GST-peptides”. The “PSA activity” value [2] was “The enzyme activity of PSA was significantly enhanced by the GST-peptides”, the “PSA activity” value [3] was “stimulating PSA activity against the chromogenic substrate about 5-fold” and the “PSA enzyme activity (A405 nm) on substrate S-2586; PSA 0.33 µM, peptide in 30-fold molar excess” value [4] was “SKSKSKS-tailed C4: rises linearly to about 0.060 at 65 min, just under non-tailed C4; PSA control about 0.021”. The “PSA enzyme activity (A405) on substrate S-2586; PSA 0.33 µM, peptide in 30-fold molar excess” value (Tc99m-labeled C4) was “C4-technetium-conjugate: rises to about 0.12 at 95 min, between unlabelled C4 (about 0.16) and the PSA control (about 0.095); wide error bars”, the “cleavage of IGF-BP-3 by PSA (IGF-BP-3 IFMA), 100-fold molar excess of peptide” value [5] was “about 70% cleavage of IGF-BP-3” and the “PSA enzyme activity (A405) on substrate S-2586; PSA 0.33 µM” value [6] was “Unlabelled C4: rises to about 0.16 at 95 min; PSA control about 0.095; also recorded: C4: rises to about 0.070 at 58 min; PSA alone about 0.040”. The “PSA enzyme activity (A405 nm) on substrate S-2586; PSA 0.33 µM, peptide in 30-fold molar excess” value [6] was “non-tailed C4: rises linearly to about 0.063 at 65 min; PSA control about 0.021”, the “cleavage of IGF-BP-3 by PSA (IGF-BP-3 IFMA), 100-fold molar excess of peptide” value [6] was “about 70% cleavage of IGF-BP-3” and the “decrease in IGF-BP-3 immunoreactivity (IFMA) after 16 h at 37 °C” value [7] was “PSA alone slowly cleaved IGF-BP-3 as revealed by an 30% decrease in immunoreactivity”. The “PSA enzyme activity (A405) on substrate S-2586; PSA 0.33 µM” value [8] was “mercaptoethanol-reduced C4: curve lies on that of the PSA control over the whole time, about 0.095 at 95 min: no enhancement”.
